Consider 41 sequences from the nanobody polyreactivity screen of Harvey et al. (2022).

The nature of the series: yeast display, Sf9 membrane polyspecificity reagent, FACS + sequencing; frameworks hold sequencing errors. The method in brief:
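In a synthetic yeast display library (Saccharomyces cerevisiae BJ5465), nanobody expression was induced with galactose for 36–48 hours. FACS gates were set low and high (top ~1%) using anti-HA fluorescence for expression and streptavidin fluorescence for binding of the Sf9 membrane reagent. Each polyreactivity label is drawn from the gate of origin.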
For “QVQLVESGGGLVQAGGSLRLSCAASGFTFKRYAMGWYRQAPGKERELVAAISWSGGSTYYADSVKGRFTISRDNAKNTVYLQMNSLKPEDTAVYYCAADGGSTEEYYYWGQGTQVTVSS”, the “polyreactivity (PSR sort gate)” value is recorded as “high polyreactivity”. As to “QVQLVESGGGLVQAGGSLRLSCAASGFTFKRYAMGWYRQAPGKERELVAAISYSGGSTYYADSVKGRFTISRDNAKNTVYLQMNSLKPEDTAVYYCAALPGRRLWTYDYWGQGTQVTVSS”, the “polyreactivity (PSR sort gate)” value is reported as “high polyreactivity”. With “QVQLVESGGGLVQAGGSLRLSCAASGFTFKRYAMGWYRQAPGKERELVAAISYSGGSTYYADSVKGRYTISRDNAKNTVYLQMNSLKPEVTAVYYCNTGRRYYSYRRDYWGQGTQVTVSS”, the “polyreactivity (PSR sort gate)” value is given as “high polyreactivity”. With “QVQLVESGGGLVQAGGSLRLSCAASGFTFKRYAMGWYRQAPGNERELVAAISYSGGSTYYADSVKWRFTISRDNAKNTVYLQMKSLKPEDTAVYYCAAPRGHGKYYSWGQGTQVTVSS”, the “polyreactivity (PSR sort gate)” value is “high polyreactivity”. As for “QVQLVESGGGLVQAGGSLRLSCAASGFTFKRYDMGWYRQAPGKERELVAAISWNGGSTYYADSVKGRFTISRDNAKNTVYLQMNSLKPEDTAVYYCAARFAYPPKRYYWGQGTQVTVSS”, the entry is “high polyreactivity”. As for “QVQLVESGGGLVQAGGSLRLSCAASGFTFKSNAMGWYRPSPGKERELVAAITWNGGSTYADSEKGRFTISRDNAKNTVYLQMNSLKPEDTAVYYCAARPYPHSAYEGDYWGRGTQVTVSS”, the entry is “low polyreactivity”; as for “QVQLVESGGGLVQAGGSLRLSCAASGFTFKWYTMGWYRPAPGKERELVAGISRRGGSTYYADSVKGRFTISRDNAKNTVYLQMNSLKPEDTAVYYCARRFLYPYDHWGQGTQVTVSS”, “high polyreactivity”; as for “QVQLVESGGGLVQAGGSLRLSCAASGFTFKYNAMGWNRQAPGKERELVASISSGSTNYADSVKGRFTISRDNAKNTVYLQMNSLKPEDTAVYYCAASVSRGKRVRYGYLFKMDYWGQGTLVTVSS”, “low polyreactivity”. As for “QVQLVESGGGLVQAGGSLRLSCAASGFTFKYYAMGWYRQAPGKERELVAAINRSGGSTHYADSVKGRFTISRDIAKNTVYLQINSLKPEDTAVYYCAATGRRRTYSEYEYWGQGTQVTVSS”, the entry is “high polyreactivity”. As to “QVQLVESGGGLVQAGGSLRLSCAASGFTFKYYAMGWYRQAPGKERELVAGISLIDGSTYYADSVKGRFTISRDNAKNTVYLQMNSLKPEDTAVYSCAKDRAPDGHYGSYDYWGQGTQVTVSS”, the “polyreactivity (PSR sort gate)” value is listed as “low polyreactivity”. As for “QVQLVESGGGLVQAGGSLRLSCAASGFTFKYYAMGWYRQAPGKERELVASISWDGTRTYYADSVKGRFTISRDNAKNTVYLQMNSLKPEDTAVYDGAAVFLDYRTYSYGYWGQGTQVTVSS”, the entry is “high polyreactivity”. To “QVQLVESGGGLVQAGGSLRLSCAASGFTFKYYAMGWYRQAPGKERELVAVISTRGTNTYYADSVKGRFTISRDNAKNTVYLQMNSLKPEDTAVYYCAAVLGGNSRLDYWGQGTQVTVSS” belongs “high polyreactivity”; to “QVQLVESGGGLVQAGGSLRLSCAASGFTFLDNAMGWYRPAPGKERELVAAISGIGGSTSYADSVKGRFTISRDNAKNTVYLQMNSLKPEDTAVYYCATRWQTVGRDTIFAYDYWGQGTQVTVSS”, “low polyreactivity”; to “QVQLVESGGGLVQAGGSLRLSCAASGFTFLFNTMGWYRQAPGKERELVAGISRGGSTTYADSVKGRFTISRDNAKNTVYLQMNSLKPEDTAVYYCAARTRYNWRGYDYWGQGTQVTVSS”, “high polyreactivity”. To “QVQLVESGGGLVQAGGSLRLSCAASGFTFLGYAMGWYRQAPGKERELVAAITRGGSTYYADSVKGRFTISRDNAKNTVYLQMNSLKPEDTAVYYCAARARAGGYGYWGQGTQVTVSS” belongs “high polyreactivity”; to “QVQLVESGGGLVQAGGSLRLSCAASGFTFLGYDMGWYRQAPGKERELVAAIDYSGGSTYYADSVKGRFTISRDNAKNTVYLQMNSLKPEDTAVYYCAAEYQSGPYTWYEYWGQGTQVTVSS”, “high polyreactivity”. As for “QVQLVESGGGLVQAGGSLRLSCAASGFTFLINAMGWYRQAPGKERELVAAIRSGGSTNYADSVKGRFTISRDNAKNSVYLQMNSLKPEDTAVYYCAARRYYPYKYRYGYWGQGTQVTVSS”, the “polyreactivity (PSR sort gate)” value was “high polyreactivity”. To “QVQLVESGGGLVQAGGSLRLSCAASGFTFLRYAMGWYRQAPGKERELVAAITGSGGSTYYADSVKGRFTISRDNAQNTVYLQMNSLKPEDTAVYYCSIVSKFTGDYGYWGQGTQVTVSS” belongs “high polyreactivity”; to “QVQLVESGGGLVQAGGSLRLSCAASGFTFLSYTMGWYRQAPGKERELVASITASGTRTYYADSVKGRFTISRDNAKNTVYLQMNRLKPEDTAVYYCAARRSGSGSHDYGYWGQGTQVTVSS”, “low polyreactivity”; to “QVQLVESGGGLVQAGGSLRLSCAASGFTFLSYTMGWYRQAPGKERELVASITASGTRTYYADSVKGRFTISRDNAKNTVYLQMNRLKPEDTSVYYCAARRSGSGSHDYGYWGQGTQVTVSS”, “low polyreactivity”. As for “QVQLVESGGGLVQAGGSLRLSCAASGFTFLVNTMGWYRQAPGKERELVAATITSTGASTYYADSVKGRFTISRDNAKNTVYLQMNSLKPEDTAVYYCAVDPGGGNYIYYYNEYDYWGQGTQVTVSS”, the entry is “low polyreactivity”. As for “QVQLVESGGGLVQAGGSLRLSCAASGFTFLYNAMGWYRQAPGKERELVASINSGGSTNYADSVKGRFTISRDNAKNTVYLQMNSLKPEDTAVYYCAADKGPLQRGFDYWGQGTQVTVSS”, the “polyreactivity (PSR sort gate)” value was “low polyreactivity”.

As to “QVQLVESGGGLVQAGGSLRLSCAASGFTFLYNTMGWYRQAPGKERELVAAISIRGGSTYYADSVKGRFTISRDNAKNTVYLQMNSLKPEETAVYYCAARTPPPSSRSRVYYWGLGTQVTVSS”, the “polyreactivity (PSR sort gate)” value was “high polyreactivity”.

“QVQLVESGGGLVQAGGSLRLSCAASGFTFLYYAMGWYRQAPGKERELVAAISASSDRTYYADSVKGRFTISRDNAMNTVYLQMNSLKPDDTAVYYCAAYNSRVGGYRGYGYWGQGTLVTVSS”: the “polyreactivity (PSR sort gate)” value is “high polyreactivity”. To “QVQLVESGGGLVQAGGSLRLSCAASGFTFNCYAMGWYRQAPGKERELVARIRWRGSTYYADSVKGRFTISRDNAKNTVYLQMNSLKPEDTAVYYCAARYYTKLYWGQGTQVTVSS” belongs “high polyreactivity”; to “QVQLVESGGGLVQAGGSLRLSCAASGFTFNDYAMGWYRQAPGKARELVAAIEWYGGRTYYADSVKGRFTISRDHAKNTDYFHMTSLKPVATAVYYCAAVLYSRLDWYRLDYWGQGTQVTVSS”, “low polyreactivity”; to “QVQLVESGGGLVQAGGSLRLSCAASGFTFNDYAMGWYRQAPGKEWELVAAIDWSGGRTYYADSVKGRFTISRDNAKNTVYLQMNSLKAEDTAVYYFAAVLYSRLYWYRLDYWGQGTQVTVSS”, “low polyreactivity”.

In the case of “QVQLVESGGGLVQAGGSLRLSCAASGFTFNKYAMGWYRQAPRKERELVAAISSSGGSTRYADSVKGRFTISRDNAKNTVYLQMISLKPEDTAVYYCAVYVTRDSGWWLYDYWGQGTQVTVSS”, the “polyreactivity (PSR sort gate)” value is “high polyreactivity”. To “QVQLVESGGGLVQAGGSLRLSCAASGFTFNRYAMGWYRQAPGKERELVAAISWSGTSTYYADSVKGRFTISRDNAKNTVYLQMNSLKPEDTAVYYCAARVKGQWNTYDYWGQGTQVTVSS” belongs “high polyreactivity”; to “QVQLVESGGGLVQAGGSLRLSCAASGFTFNSYAMGWYRQAPGKERELVAAISSSGGRTYYADSVKGRFTISRDNAKNTVYLQMNSLKPEETAVYYCNAVLVSYYSVGYDYWGQGTQVTVSS”, “high polyreactivity”. As for “QVQLVESGGGLVQAGGSLRLSCAASGFTFNYAMGWYRQAPGKERELVAAISSAGTTYYADSVKGRFTISRDNAKNTVYLQMNSLKPEDTAVYYCAALARPKQDRYRYYYWGQGTQVTVSS”, the entry is “high polyreactivity”; as for “QVQLVESGGGLVQAGGSLRLSCAASGFTFNYYAMGWYRQAPGKERELVAAITWRSGRTSYADSVKGRFTISRDNAKNTVYLQMNSLKPEDTAVYYCAKYTIYYGLTRYGYWGQGTQVTVSS”, “high polyreactivity”; as for “QVQLVESGGGLVQAGGSLRLSCAASGFTFPDYAMGWYRQAPGKERELVAAITSSGGSTYYADSVKGRFTISRDNAKNTVYLQMNSLKPEDTAVYYCNAYISDDRYWSPAIEEDYWGQGTQVTVSS”, “high polyreactivity”. As to “QVQLVESGGGLVQAGGSLRLSCAASGFTFPDYAMGWYRQAPGKERELVAGISSTGDSTYYADSGKGRYTISRDNAKNTGYLQRNSLKPEETAVYYCNAAQERPSIILFSKYDYWGQGTQETVSS”, the “polyreactivity (PSR sort gate)” value is listed as “low polyreactivity”.

With “QVQLVESGGGLVQAGGSLRLSCAASGFTFPEYTMGWYRQAPGKERELVAAISWSGGSTYYADSVKGRFTISRDNAKNSVYLQMNSLKPEDTAVYYCNWKRGYGYWGQGTQVTVSS”, the “polyreactivity (PSR sort gate)” value is given as “high polyreactivity”. To “QVQLVESGGGLVQAGGSLRLSCAASGFTFPFYTMGWYRQAPGKERELVAAITRSGASTFYADSVKGRFTISRDNAKNTVYLQMNSLKPEDTAVYYCAARRGYAPYEYWGQGTQVTVSS” belongs “high polyreactivity”. As for “QVQLVESGGGLVQAGGSLRLSCAASGFTFPGYAMGWYRQAPGKERKLVAAITGSGGRTYYADSVKGRFTISRDNAKNTVYLQMNSLKPEDTAVYYCLARSYYNWYDYWGQGTQVTVSS”, the entry is “high polyreactivity”; as for “QVQLVESGGGLVQAGGSLRLSCAASGFTFPGYTMGWSRQAPGKERELVAAISTSGGSTYYADSVKGRFTISRDNAKNTVYLQMNSLKPEDTAVYYCAAAKPRVISQNIIYDYWGQGTQVTVSS”, “high polyreactivity”. Regarding “QVQLVESGGGLVQAGGSLRLSCAASGFTFPGYVMGWYRQAPGKERELVAAISRSGGRTYYADSVKGRFTISRDNAKNTVYLQMNSQKPDDTAVYYCNTPDPGRDSDYWGQGTQVTVSS”, the “polyreactivity (PSR sort gate)” value is reported as “high polyreactivity”.

For “QVQLVESGGGLVQAGGSLRLSCAASGFTFPPYAMGLYIQATGKETELVAAITVGGGRTYYADSVKARFTISRDNARNTVYLQMNWLKPVDTAVYYCDADSHASTYDYWGQGTQVTVSS”, the “polyreactivity (PSR sort gate)” value is recorded as “low polyreactivity”.

Turning to “QVQLVESGGGLVQAGGSLRLSCAASGFTFPPYGMGWYRQAPGKERELVASISIGGGTYYADSVKGRFTISRDNAQNTVYLQMNSLKPEDTPVYYCAADLGQWSYYEFDYWGQGTQVTVSS”, the “polyreactivity (PSR sort gate)” value is recorded as “low polyreactivity”.
